{"source": "patent US20100322974A1", "about": "“Targeting the histone code as a bacterial strategy for selectively modulating gene expression” (priority 2005, published 2010)", "molecules": {"B1": {"name": "OspF phosphatase (protein)", "chain": "MPIKKPCLKLNLDSLNVVKSEIPQMLSANERLKNNFNILYNQIRQYPAYYFKVASNVPTYSDICQFFSVMYQGFQIVNHSGDVFIHACRENPQSKGDFVGDKFHISIAREQVPLAFQILSGLLFSEDSPIDKWKITDMNRVSQQSRVGIGAQFTLYVKSDQECSQYSALLLHKIRQFIMCLESNLLRSKIAPGEYPASDVRPEDWKYVSYRNELRSDRDGSERQEQMLREEPFYRLMIE"}, "B2": {"name": "MKP1 (enzyme, UniProt P28562 1-367, looked up, species assumed)", "Dual specificity protein phosphatase 1": "MVMEVGTLDAGGLRALLGERAAQCLLLDCRSFFAFNAGHIAGSVNVRFSTIVRRRAKGAMGLEHIVPNAELRGRLLAGAYHAVVLLDERSAALDGAKRDGTLALAAGALCREARAAQVFFLKGGYEAFSASCPELCSKQSTPMGLSLPLSTSVPDSAESGCSSCSTPLYDQGGPVEILPFLYLGSAYHASRKDMLDALGITALINVSANCPNHFEGHYQYKSIPVEDNHKADISSWFNEAIDFIDSIKNAGGRVFVHCQAGISRSATICLAYLMRTNRVKLDEAFEFVKQRRSIISPNFSFMGQLLQFESQVLAPHCSAEAGSPAMAVLDRGTSTTTVFNFPVSIPVHSTNSALSYLQSPITTSPSC"}}, "key": {"[1]": {"system": "endogenous Erk", "test": "Erk phosphorylation in transfected HeLa cells stimulated by PMA", "settings": "transfected expression plasmid, PMA stimulation"}, "[2]": {"system": "p38 MAP kinases", "test": "p38 phosphorylation in transfected HeLa cells stimulated by TNF", "type": "cell-based", "settings": "transfected plasmid, TNF stimulation", "procedure": "IF was performed with anti-OspF antibodies."}, "[3]": {"target": "OspF (Shigella flexneri, UniProt Q8VSP9, R19K/S66F)"}, "[4]": {"system": "histone H3 phosphorylation at Ser 10", "test": "H3 pS10 signal in HeLa cells infected with the ospF strain after kinase inhibitor pretreatment", "type": "cell-based", "settings": "both inhibitors together, U0126 10 μM and SB203180 2.5 μM, 60 min pretreatment, 30 min infection"}, "[5]": {"system": "phospho Erk2-GST", "test": "In vitro phosphatase assay on phospho Erk2-GST (Western blot)", "settings": "for dephosphorylation of phospho-Erk2 substrate: purified protein, Western blot with anti phospho-Erk"}, "[6]": {"system": "phospho p38-GST", "test": "In vitro phosphatase assay on purified phospho p38-GST", "type": "biochemical", "settings": "50 nM substrate"}, "[7]": {"system": "phospho JNK1", "test": "In vitro phosphatase assay on purified phospho JNK1 Histidine", "type": "biochemical", "settings": "50 nM substrate"}, "[8]": {"system": "histone H3 K14 acetylation", "test": "Trichostatin-induced hyper acetylation on K14 in HeLa cells overexpressing OspF", "type": "cell-based", "description": "A plasmid encoding myc-labelled OspF was used to overexpress OspF in HeLa cells. […] Thus, variations of the levels of phosphoacetylated histone H3 are likely to reflect the sole capacity of OspF to reduce the level of phosphorylation at Ser10."}, "[9]": {"target": "T1, ^33P-labeled Erk2 (Homo sapiens, UniProt P28482)", "T1 construct": "made in house", "test": "33P-labeled Erk2 phosphatase assay, steady state kinetics", "type": "biochemical", "settings": "pH 8, 30° C., 100 nM phosphatase, 10 minutes, Michaelis-Menten fit; for Km: read-out: Km of Erk2 dephosphorylation", "description": "In vitro phosphatase assay."}, "[10]": {"system": "histone H3 purified from calf thymus", "test": "Direct dephosphorylation of histone H3 or H3 tail peptides in vitro", "type": "biochemical", "settings": "2 hours 30° C., even at 100 fold increased enzyme concentration"}, "[11]": {"system": "IL-8 promoter", "test": "ChIP with anti-OspF antibody at the IL-8 promoter in transfected HeLa cells", "type": "cell-based", "procedure": "(A) DNA isolated from sonicated cross-linked chromatin fragments used as inputs for Chlp assays run on a 2% agarose/TAE gel. (B) Cross-linked chromatin fragments were prepared from Caco 2 cells left untreated (ns) or infected with the WT or the ospF strains at the indicated time. For each time point, aliquots were immunoprecipitated with irrelevant IgG, anti-H3 methyl K9-pS10, or anti-p65 antibodies. Histograms show the results obtained by Real-Time PCR analysis using amplicon from the promoter region of IL-8. Data are expressed as relative enrichment as compared to the result obtained with the corresponding IgG that have been immunoprecipitated at the same time point. […] (C) The data are given as in figure (B) except that the aliquots were immunoprecipitated with irrelevant IgG or anti-RNAPII antibodies. […]\nTo address whether MAPK-induced H3pS10 in the vicinity of the IL-8 promoter, HeLa cells expressing the plasmids encoding WT ospF, or as control, a C-terminal deletion mutant of the last 30 amino acids ospF (1-221) unable to localize within the nucleus (FIG. 7G) were processed for chromatin immunoprecipitation (ChIP) assay using the anti-OspF antibody and the enrichment of OspF at the IL-8 promoter was analyzed by Real-Time quantitative PCR.\nIn unstimulated cells, no signal was detected at the IL-8 promoter (FIG. 7H). […]"}, "[12]": {"system": "NF-κB", "test": "TNF-α-induced NF-κB reporter construct in Caco 2 cells", "type": "cell-based, human", "settings": "overexpression in Caco 2 cells", "description": "In addition to the classical MAPK-dependent target genes, OspF also repressed expression of some NF-κB-dependent chemokine genes such as IL-8. The IL-8 promoter contains an NF-κB binding site essential for expression of this gene (Hoffmann et al., 2002). Therefore, the inventors looked whether OspF interferes with the NF-κB signaling pathway."}, "[13]": {"target": "33P-labeled Erk2 (GST-Erk2 fusion protein phosphorylated in vitro by MEK1) [GST: P08515]"}, "[14]": {"system": "histone H3 phosphorylation at Ser 10", "test": "H3 pS10 induced by okadaic acid in HeLa cells overexpressing OspF (immunofluorescence)", "type": "cell-based", "settings": "200 nM okadaic acid 3 hours", "procedure": "(A) HeLa cells were left untreated (ns) or infected with the WT or the ospF strain at the indicated time. Indirect immunofluorescence detection was performed with anti-phospho-histone H3 S10 polyclonal antibody. (B) HeLa cells were synchronized by a double thymidine block (2 mM thymidine) and left untreated (ns) or infected with the WT or the ospF strain at the indicated time. Immunoblots were probed with anti-H3 phospho S10 (H3 pS10), anti-H3 methyl K9-phospho S10 (H3 metK9-pS10), anti-H3 phospho S10 acetyl-K14 (H3 p-S10/Ac-K14), anti Histone H3 polyclonal anti-pp 38 and pErk antibodies. (C) HeLa cells were transfected with pRK5myc-OspF vector and treated with 200 nM okadaic acid for 3 hours. IF was performed with anti-myc (red) and anti-H3 methyl K9-pS10 (green) antibodies. […] (D) One micogram of calf-thymus histone (Sigma) was incubated with 300 ng of His-OspF or with 120 U of λ phosphatase for 2 hours at 30° C. Western blot was performed with an anti-metK9-pS10 antibody. (E) One micogram of peptide metK9-S10 was spotted onto a nitrocellulose membrane that was incubated with buffers, 5 μg/ml of OspF, or 2000 U/ml of lambda phosphatase for 2 hours at 30° C. Western blot was performed with an anti-metK9-pS10 antibody. (F) HeLa cells were pretreated for 60 min with either the MEK1 inhibitor U0126 (10 μM) or the p38 inhibitor SB203180 (2.5 μM) or both. […]"}, "[15]": {"system": "IL-12", "test": "Cytokine production in infected lungs (murine pulmonary infection, ELISA)", "type": "in vivo, mice", "settings": "lungs infected with M90T or ospF strain, 24 hours post-infection", "procedure": "The cytokine/chemokine network induced upon infection with Shigella flexneri was analyzed by comparing the profiles obtained upon infection with the invasive strain carrying the virulence plasmid (INV+) and the non-invasive, plasmidless strain (INV−). The murine model of pulmonary infection was used since it was the only valid model to analyze the specific host immune response upon Shigella infection. Following infection with INV−, a Th1 type-network (IL-12, IL-18, CCL9, CCL10, CCL13, and CCL4) was induced. In contrast, a Th2/Tr1 profile (IL-10, CCL1, CCL24 and CCL2) was induced upon infection with INV+. The difference observed was not due to the bacterial dose used for the infection, but was dependent on the presence or absence of the virulence plasmid.\nSome of these bacterial effectors are injected within the host cells by a type III secretion apparatus. Use of different bacterial mutants, has highlighted that the bacterial effectors involved in the immunomodulation were effectors secreted by the type III-secretion apparatus. Finally, OspF, a type III-secreted bacterial effector was responsible for the control of IL-12 production (FIG. 10)."}, "[16]": {"system": "33P-labeled Erk2 (GST-Erk2 fusion protein phosphorylated in vitro by MEK1) [GST: P08515]", "remark": "listed apart in the source"}}}
{"molecule": "His to Leu mutation at position 172: OspF with His to Leu mutation at position 172", "values": [{"measurement": "ability to dephosphorylate Erk / prevent Erk phosphorylation in HeLa cells", "setting": "[1]", "result": "retention of phosphatase activity"}]}
{"molecule": "myc-labelled OspF: myc labelled OspF expressed from plasmid pRK5myc-OspF", "values": [{"measurement": "prevention of p38 phosphorylation in HeLa cells", "setting": "[2]", "result": "prevented phosphorylation"}, {"measurement": "ability to dephosphorylate Erk / prevent Erk phosphorylation in HeLa cells", "setting": "[1]", "result": "prevented phosphorylation"}]}
{"molecule": "O=C(O)CN(CCN(CC(=O)O)CC(=O)O)CC(=O)O", "note": "[EDTA]", "values": [{"measurement": "OspF activity blocked by EDTA (metal dependence)", "setting": "[3]", "result": "not blocked"}]}
{"molecule": "C1805: OspF with Cys 180 mutated into Ser (printed C1805)", "values": [{"measurement": "ability to dephosphorylate Erk / prevent Erk phosphorylation in HeLa cells", "setting": "[1]", "result": "None of the mutations"}]}
{"molecule": "N#CC(=C(/N)Sc1ccccc1N)/C(C#N)=C(\\N)Sc1ccccc1N", "note": "[U0126]", "values": [{"measurement": "H3 pS10 signal induced by the ospF strain", "setting": "[4]", "result": "fully inhibited"}]}
{"molecule": "C[S+]([O-])c1ccc(-c2nc(-c3ccc(F)cc3)c(-c3ccncc3)[nH]2)cc1", "note": "(centres unmarked) [SB 203180]", "values": [{"measurement": "H3 pS10 signal induced by the ospF strain", "setting": "[4]", "result": "fully inhibited"}]}
{"molecule": "D219: OspF with aspartate D219 mutated into asparagine", "values": [{"measurement": "dephosphorylation of phospho-Erk2 substrate", "setting": "[5]", "result": "did not impair phosphatase activity"}]}
{"molecule": "B1", "values": [{"measurement": "dephosphorylation of purified phospho p38", "setting": "[6]", "result": "directly dephosphorylated"}, {"measurement": "dephosphorylation of purified phospho JNK1", "setting": "[7]", "result": "failed to dephosphorylate"}, {"measurement": "dephosphorylation of pT183 and pY185 residues of Erk", "setting": "[5]; 500 ng OspF, 50 ng phospho Erk2-GST, 1 hour 30° C.", "result": "dephosphorylated both Thr and Tyr residues"}, {"measurement": "dephosphorylation of phospho-Erk2 substrate", "setting": "[5]", "result": "directly dephosphorylated"}, {"measurement": "trichostatin-induced hyper acetylation on K14", "setting": "[8]", "result": "did not impair"}, {"measurement": "Vmax of Erk2 dephosphorylation", "setting": "[9]", "result": 9.89, "unit": "pM/s"}, {"measurement": "kcat of Erk2 dephosphorylation", "setting": "[9]", "result": 0.0001, "unit": "s⁻¹"}, {"measurement": "Km", "setting": "[9]", "result": 0.204, "unit": "µM"}, {"measurement": "direct dephosphorylation of histone H3 and metK9-pS10 / pS10 peptides", "setting": "[10]", "result": "did not directly dephosphorylate"}, {"measurement": "recruitment of OspF at the IL-8 promoter", "setting": "[11]; TNF-α stimulation", "result": "transient recruitment"}, {"measurement": "OspF at the IL-8 promoter", "setting": "[11]; unstimulated cells", "result": "not detectable"}, {"measurement": "TNF-α-induced activation of a NF-κB reporter construct", "setting": "[12]", "result": "did not impair"}, {"measurement": "Km (release of radioactive inorganic phosphate, Michaelis-Menten fit, pH 8, 30° C., 100 nM enzyme)", "setting": "[13]", "result": 204, "unit": "nM"}, {"measurement": "Vmax (release of radioactive inorganic phosphate, Michaelis-Menten fit, pH 8, 30° C., 100 nM enzyme)", "setting": "[13]", "result": 9.89, "unit": "pM s^-1"}, {"measurement": "kcat (release of radioactive inorganic phosphate, Michaelis-Menten fit, pH 8, 30° C., 100 nM enzyme)", "setting": "[13]", "result": 0.0001, "unit": "s^-1"}, {"measurement": "induction of H3 pS10 by okadaic acid", "setting": "[14]", "result": "efficiently prevented"}, {"measurement": "IL-12 production in vivo", "setting": "[15]", "result": "down regulated"}]}
{"molecule": "B2", "values": [{"measurement": "Km (release of radioactive inorganic phosphate, Michaelis-Menten fit, 100 nM enzyme)", "setting": "[16]", "result": 0.229, "unit": "µM"}, {"measurement": "Vmax (release of radioactive inorganic phosphate, Michaelis-Menten fit, 100 nM enzyme)", "setting": "[16]", "result": 6.01, "unit": "pM/s"}, {"measurement": "dephosphorylation of 33P-labeled Erk2 (gel mobility in SDS-PAGE/autoradiography, phospho-Erk Western blot)", "setting": "[16]", "result": "Dephosphorylation of Erk2 by both enzymes was confirmed by the gel-mobility increase of the substrate"}, {"measurement": "kcat (release of radioactive inorganic phosphate, Michaelis-Menten fit, 100 nM enzyme)", "setting": "[16]", "result": 0.0006, "unit": "s⁻¹"}, {"measurement": "Vmax of Erk2 dephosphorylation", "setting": "[9]", "result": 6.01, "unit": "pM/s"}, {"measurement": "kcat of Erk2 dephosphorylation", "setting": "[9]", "result": 0.0006, "unit": "s⁻¹"}, {"measurement": "Km", "setting": "[9]", "result": 0.229, "unit": "µM"}]}
